This passage reports Kd results from patent US20220073599A1.

In assay [1] the target is human VEGFA-121-His (human) (UniProt P15692). Kind of assay: KinExA equilibrium titration in solution, VEGFA-121. Background: Kinetic exclusion samples the free partner from a solution-phase mixture.
The next assay concerns the target human VEGFA-165 (human) (UniProt P15692). Kind of assay: KinExA, VEGFA-165; set-up for VEGFA-165 not described.

As a reminder, the Kd is the free concentration of one partner at which half of the binding sites on the other are occupied at equilibrium, for simple one-to-one binding. Read a low Kd as a tighter complex.

Aflibercept-analogue (Fc fusion), sequence (chain): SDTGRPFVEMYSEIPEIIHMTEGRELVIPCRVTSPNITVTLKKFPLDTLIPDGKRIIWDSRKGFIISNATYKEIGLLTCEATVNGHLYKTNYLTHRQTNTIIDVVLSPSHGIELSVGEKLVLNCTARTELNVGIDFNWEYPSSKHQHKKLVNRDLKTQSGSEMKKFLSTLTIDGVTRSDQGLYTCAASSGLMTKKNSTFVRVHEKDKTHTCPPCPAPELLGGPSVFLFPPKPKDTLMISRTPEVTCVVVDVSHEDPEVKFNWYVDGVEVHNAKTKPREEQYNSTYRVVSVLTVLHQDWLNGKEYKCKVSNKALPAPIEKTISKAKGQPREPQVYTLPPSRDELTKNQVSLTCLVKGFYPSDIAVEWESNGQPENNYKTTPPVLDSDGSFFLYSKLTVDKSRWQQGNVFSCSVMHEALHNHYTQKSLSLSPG
human VEGFA-165 (human), sequence (P15692 other isoform, or with tags, fused parts or gaps limits assumed): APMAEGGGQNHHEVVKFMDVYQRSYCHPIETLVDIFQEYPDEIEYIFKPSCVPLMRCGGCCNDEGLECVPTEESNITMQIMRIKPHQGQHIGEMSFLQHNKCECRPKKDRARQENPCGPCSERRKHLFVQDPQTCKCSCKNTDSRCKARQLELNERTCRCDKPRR
human VEGFA-121-His (human), sequence (P15692 other isoform, or with tags, fused parts or gaps): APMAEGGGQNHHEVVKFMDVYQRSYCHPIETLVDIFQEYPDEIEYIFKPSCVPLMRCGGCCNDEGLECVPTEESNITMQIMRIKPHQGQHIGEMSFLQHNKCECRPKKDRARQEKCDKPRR

On to Aflibercept-analogue (Fc fusion), for which the Kd in assay [1] worked out at 0.2 pM; with human VEGFA-165 (human), 0.1 pM.
